B1: Tesmin (Homo sapiens), Q9Y4I5 (parent)
chain: MEEGPLPGGLPSPEDAMVTELLSPEGPFASENIGLKAPVKYEEDEFHVFKEAYLGPADPKEPVLHAFNPALGADCKGQVKAKLAGGDSDGGELLGEYPGIPELSALEDVALLQAPQPPACNVHFLSSLLPAHRSPAVLPLGAWVLEGASHPGVRMIPVEIKEAGGTTTSNNPEEATLQNLLAQESCCKFPSSQELEDASCCSLKKDSNPMVICQLKGGTQMLCIDNSRTRELKALHLVPQYQDQNNYLQSDVPKPMTALVGRFLPASTKLNLITQQLEGALPSVVNGSAFPSGSTLPGPPKITLAGYCDCFASGDFCNNCNCNNCCNNLHHDIERFKAIKACLGRNPEAFQPKIGKGQLGNVKPQHNKGCNCRRSGCLKNYCECYEAQIMCSSICKCIGCKNYEESPERKTLMSMPNYMQTGGLEGSHYLPPTKFSGLPRFSHDRRPSSCISWEVVEATCACLLAQGEEAEKEHCSKCLAEQMILEEFGRCLSQILHTEFKSKGLKME
B2: Mineralocorticoid receptor (Homo sapiens), P08235 (parent)
chain: METKGYHSLPEGLDMERRWGQVSQAVERSSLGPTERTDENNYMEIVNVSCVSGAIPNNSTQGSSKEKQELLPCLQQDNNRPGILTSDIKTELESKELSATVAESMGLYMDSVRDADYSYEQQNQQGSMSPAKIYQNVEQLVKFYKGNGHRPSTLSCVNTPLRSFMSDSGSSVNGGVMRAVVKSPIMCHEKSPSVCSPLNMTSSVCSPAGINSVSSTTASFGSFPVHSPITQGTPLTCSPNVENRGSRSHSPAHASNVGSPLSSPLSSMKSSISSPPSHCSVKSPVSSPNNVTLRSSVSSPANINNSRCSVSSPSNTNNRSTLSSPAASTVGSICSPVNNAFSYTASGTSAGSSTLRDVVPSPDTQEKGAQEVPFPKTEEVESAISNGVTGQLNIVQYIKPEPDGAFSSSCLGGNSKINSDSSFSVPIKQESTKHSCSGTSFKGNPTVNPFPFMDGSYFSFMDDKDYYSLSGILGPPVPGFDGNCEGSGFPVGIKQEPDDGSYYPEASIPSSAIVGVNSGGQSFHYRIGAQGTISLSRSARDQSFQHLSSFPPVNTLVESWKSHGDLSSRRSDGYPVLEYIPENVSSSTLRSVSTGSSRPSKICLVCGDEASGCHYGVVTCGSCKVFFKRAVEGQHNYLCAGRNDCIIDKIRRKNCPACRLQKCLQAGMNLGARKSKKLGKLKGIHEEQPQQQQPPPPPPPPQSPEEGTTYIAPAKEPSVNTALVPQLSTISRALTPSPVMVLENIEPEIVYAGYDSSKPDTAENLLSTLNRLAGKQMIQVVKWAKVLPGFKNLPLEDQITLIQYSWMCLSSFALSWRSYKHTNSQFLYFAPDLVFNEEKMHQSAMYELCQGMHQISLQFVRLQLTFEEYTIMKVLLLLSTIPKDGLKSQAAFEEMRTNYIKELRKMVTKCPNNSGQSWQRFYQLTKLLDSMHDLVSDLLEFCFYTFRESHALKVEFPAMLVEIISDQLPKVESGNAKPLYFHRK
partner: B1 chain
B3: Mineralocorticoid receptor (Homo sapiens), P08235 (parent)
chain: B2 chain
partner: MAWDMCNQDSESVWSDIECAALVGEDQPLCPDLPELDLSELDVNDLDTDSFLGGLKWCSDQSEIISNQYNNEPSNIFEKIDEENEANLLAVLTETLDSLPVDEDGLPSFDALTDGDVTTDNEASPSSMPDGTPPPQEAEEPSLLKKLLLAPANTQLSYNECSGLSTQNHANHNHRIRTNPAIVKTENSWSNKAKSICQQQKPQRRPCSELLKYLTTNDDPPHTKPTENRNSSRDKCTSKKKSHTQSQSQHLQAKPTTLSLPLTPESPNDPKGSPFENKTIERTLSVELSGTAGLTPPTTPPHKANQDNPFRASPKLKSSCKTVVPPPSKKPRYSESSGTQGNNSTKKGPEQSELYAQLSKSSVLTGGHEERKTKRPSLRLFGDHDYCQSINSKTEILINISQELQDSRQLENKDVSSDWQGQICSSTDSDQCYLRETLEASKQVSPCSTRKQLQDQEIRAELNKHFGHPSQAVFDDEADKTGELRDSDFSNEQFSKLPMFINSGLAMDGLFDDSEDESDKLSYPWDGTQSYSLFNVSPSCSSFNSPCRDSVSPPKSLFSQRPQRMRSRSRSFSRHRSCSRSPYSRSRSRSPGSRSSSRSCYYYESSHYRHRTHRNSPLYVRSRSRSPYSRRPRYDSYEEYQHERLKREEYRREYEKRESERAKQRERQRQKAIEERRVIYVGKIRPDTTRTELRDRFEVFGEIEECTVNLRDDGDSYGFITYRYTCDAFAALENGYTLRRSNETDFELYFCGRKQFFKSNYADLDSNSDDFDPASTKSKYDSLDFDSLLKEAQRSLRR

The first assay covers variants of B1. Conditions: with mcr_human NR3C2, P08235.
Consider MEEGPLPGGLPSPEDAMVTELLSPEGPFASENIGLKAPVKYEEDEFHVFKEAYLGPADPKEPVLHAFNPALGADCKGQVKAKLAGGDSDGGELLGEYPGIPELSALEDVALLQAPQPPACNVHFLSSAAPAHRSPAVLPLGAWVLEGASHPGVRMIPVEIKEAGGTTTSNNPEEATLQNAAAQESCCKFPSSQELEDASCCSLKKDSNPMVICQLKGGTQMLCIDNSRTRELKALHLVPQYQDQNNYLQSDVPKPMTALVGRFLPASTKLNLITQQLEGALPSVVNGSAFPSGSTLPGPPKITLAGYCDCFASGDFCNNCNCNNCCNNLHHDIERFKAIKACLGRNPEAFQPKIGKGQLGNVKPQHNKGCNCRRSGCLKNYCECYEAQIMCSSICKCIGCKNYEESPERKTLMSMPNYMQTGGLEGSHYLPPTKFSGLPRFSHDRRPSSCISWEVVEATCACLLAQGEEAEKEHCSKCLAEQMILEEFGRCLSQILHTEFKSKGLKME [L128A;L129A;L180A;L181A], for which the “effect of a mutation on the interaction” value is recorded as “disrupting interaction strength”.

As for MEEGPLPGGLPSPEDAMVTELLSPEGPFASENIGLKAPVKYEEDEFHVFKEAYLGPADPKEPVLHAFNPALGADCKGQVKAKLAGGDSDGGELLGEYPGIPELSALEDVALLQAPQPPACNVHFLSSLLPAHRSPAVLPLGAWVLEGASHPGVRMIPVEIKEAGGTTTSNNPEEATLQNAAAQESCCKFPSSQELEDASCCSLKKDSNPMVICQLKGGTQMLCIDNSRTRELKALHLVPQYQDQNNYLQSDVPKPMTALVGRFLPASTKLNLITQQLEGALPSVVNGSAFPSGSTLPGPPKITLAGYCDCFASGDFCNNCNCNNCCNNLHHDIERFKAIKACLGRNPEAFQPKIGKGQLGNVKPQHNKGCNCRRSGCLKNYCECYEAQIMCSSICKCIGCKNYEESPERKTLMSMPNYMQTGGLEGSHYLPPTKFSGLPRFSHDRRPSSCISWEVVEATCACLLAQGEEAEKEHCSKCLAEQMILEEFGRCLSQILHTEFKSKGLKME [L180A;L181A], the “effect of a mutation on the interaction” value was “with no effect”.

For MEEGPLPGGLPSPEDAMVTELLSPEGPFASENIGLKAPVKYEEDEFHVFKEAYLGPADPKEPVLHAFNPALGADCKGQVKAKLAGGDSDGGELLGEYPGIPELSALEDVALLQAPQPPACNVHFLSSAAPAHRSPAVLPLGAWVLEGASHPGVRMIPVEIKEAGGTTTSNNPEEATLQNLLAQESCCKFPSSQELEDASCCSLKKDSNPMVICQLKGGTQMLCIDNSRTRELKALHLVPQYQDQNNYLQSDVPKPMTALVGRFLPASTKLNLITQQLEGALPSVVNGSAFPSGSTLPGPPKITLAGYCDCFASGDFCNNCNCNNCCNNLHHDIERFKAIKACLGRNPEAFQPKIGKGQLGNVKPQHNKGCNCRRSGCLKNYCECYEAQIMCSSICKCIGCKNYEESPERKTLMSMPNYMQTGGLEGSHYLPPTKFSGLPRFSHDRRPSSCISWEVVEATCACLLAQGEEAEKEHCSKCLAEQMILEEFGRCLSQILHTEFKSKGLKME [L128A;L129A], the “effect of a mutation on the interaction” value is “with no effect”.

A further assay covers variants of B2. The settings on record: with mtl5_human TESMIN.
In the case of E962A, the “effect of a mutation on the interaction” value is recorded as “decreasing interaction strength”.

The next assay covers variants of B3. Conditions: with prgc1_human PPARGC1A.
As to E962A, the “effect of a mutation on the interaction” value was “disrupting interaction strength”.

Variants of B3 are the subject of another assay. The settings on record: with prgc1_human PPARGC1A. This is another data set of the same source.
Consider E962A, for which the “effect of a mutation on the interaction” value is reported as “decreasing interaction strength”.

The values above are taken from IntAct's records for PubMed 24907116.
